This note sets out measurements from doi:10.1101/2023.12.20.572542 (bioRxiv, 2023).

The term stoichiometry N denotes a count of units in the complex or per binding partner.

The target of data set [1] is hSlo1EM (human Slo1 channel, tags released) (human). Description: SEC. On the technique in general: SEC sorts molecules by how far they enter the pores of the column.
Data set [2] has as its target hSlo1EM-eGFP-twin-strep (human Slo1 channel, tags on) (human).
For data set [3] the target is unchanged. The source holds these as a separate data set.
Data set [4] has the same target. The source holds these as a separate data set.
The data set “SEC” concerns the molecule itself. Description: SEC.
Data set [5] concerns the target hSlo1EM-eGFP-twin-strep (human Slo1 channel, tags on) (human). This is another data set of the same source.
The data set “cryo-EM structure” concerns the molecule itself. The data set can be described thus: cryo-EM structure.
The target of data set [6] is hSlo1EM (human Slo1 channel, tags released) (human). Description: cryo-EM structure.

Numbering of substitutions follows the chain as printed. Numbers in names are those of the source.

Chain of hSlo1EM-eGFP-twin-strep (human Slo1 channel, tags on) (human) (Q12791 whole entry): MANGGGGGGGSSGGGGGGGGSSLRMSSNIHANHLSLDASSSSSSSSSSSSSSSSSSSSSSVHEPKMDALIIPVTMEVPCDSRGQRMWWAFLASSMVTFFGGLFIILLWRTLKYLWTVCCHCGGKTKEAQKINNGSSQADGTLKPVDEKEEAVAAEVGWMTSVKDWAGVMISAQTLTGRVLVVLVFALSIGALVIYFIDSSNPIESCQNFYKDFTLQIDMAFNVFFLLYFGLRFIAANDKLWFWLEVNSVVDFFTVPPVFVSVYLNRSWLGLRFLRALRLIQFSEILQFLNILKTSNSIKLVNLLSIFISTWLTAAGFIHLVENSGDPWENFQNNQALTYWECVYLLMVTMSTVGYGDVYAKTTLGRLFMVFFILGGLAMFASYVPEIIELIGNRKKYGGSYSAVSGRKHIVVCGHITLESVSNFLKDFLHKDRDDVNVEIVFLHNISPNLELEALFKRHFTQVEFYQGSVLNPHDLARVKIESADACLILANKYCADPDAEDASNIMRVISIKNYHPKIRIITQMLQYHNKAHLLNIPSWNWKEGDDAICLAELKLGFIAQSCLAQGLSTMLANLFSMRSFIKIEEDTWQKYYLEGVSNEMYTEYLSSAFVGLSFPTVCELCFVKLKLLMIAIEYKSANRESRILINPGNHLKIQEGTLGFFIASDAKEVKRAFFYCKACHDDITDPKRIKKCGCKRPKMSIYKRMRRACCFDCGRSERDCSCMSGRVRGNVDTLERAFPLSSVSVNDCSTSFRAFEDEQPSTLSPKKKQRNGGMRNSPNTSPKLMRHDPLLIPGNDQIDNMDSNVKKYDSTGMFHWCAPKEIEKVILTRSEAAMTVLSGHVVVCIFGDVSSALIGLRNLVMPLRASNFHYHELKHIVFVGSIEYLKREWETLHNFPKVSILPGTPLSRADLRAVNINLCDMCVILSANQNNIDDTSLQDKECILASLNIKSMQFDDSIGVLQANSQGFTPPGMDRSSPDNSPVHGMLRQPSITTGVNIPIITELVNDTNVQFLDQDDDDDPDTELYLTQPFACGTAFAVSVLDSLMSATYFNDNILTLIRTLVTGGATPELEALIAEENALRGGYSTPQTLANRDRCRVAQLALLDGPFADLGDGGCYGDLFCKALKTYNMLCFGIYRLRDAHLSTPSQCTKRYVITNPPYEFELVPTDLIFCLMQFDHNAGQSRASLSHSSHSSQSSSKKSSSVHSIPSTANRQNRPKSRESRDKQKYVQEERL

With “hSlo1EM (human Slo1 channel, tags released) (natural protein)”, in data set [1], the stoichiometry N was found to be 4 subunits. The molecule “hSlo1EM-eGFP-twin-strep (human Slo1 channel, tags on) (natural protein)” displayed a stoichiometry N in data set [2] of 4 subunits.

B1: β4 subunit-mCherry-FLAG (natural protein)
chain: MAKLRVAYEYTEAEDKSIRLGLFLIISGVVSLFIFGFCWLSPALQDLQATEANCTVLSVQQIGEVFECTFTCGADCRGTSQYPCVQVYVNNSESNSRALLHSDEHQLLTNPKCSYIPPCKRENQKNLESVMNWQQYWKDEIGSQPFTCYFNQHQRPDDVLLHRTHDEIVLLHCFLWPLVTFVVGVLIVVLTICAKSLAVKAEAMKKRKFS
Consider B1, for which the stoichiometry N (auxiliary subunits per Slo1 tetramer) in data set [3] is 4. The same molecule came in with a percent of total Slo1 in complex in data set [4] above 90%.

B2: LRRC38 (γ4)-mCherry-FLAG (natural protein)
chain: CPAGCACTDPHTVDCRDRGLPSVPDPFPLDVRKLLVAGNRIQRIPEDFFIFYGDLVYLDFRNNSLRSLEEGTFSGSAKLVFLDLSYNNLTQLGAGAFRSAGRLVKLSLANNNLVGVHEDAFETLESLQVLELNDNNLRSLSVAALAALPALRSLRLDGNPWLCDCDFAHLFSWIQENASKLPKGLDEIQCSLPMESRRISLRELSEASFSECRFSLSLTDLCIIIFSGVAVSIAAIISSFFLATVVQCLQRCAPNKDAEDEDEDKDD
For the molecule B2, the percent of total Slo1 in complex in data set [4] is below 10%.

B3: β2 subunit-mCherry-FLAG (natural protein)
chain: MFIWTSGRTSSSYRHDEKRNIYQKIRDHDLLDKRKTVTALKAGEDRAILLGLAMMVCSIMMYFLLGITLLRSYMQSVWTEESQCTLLNASITETFNCSFSCGPDCWKLSQYPCLQVYVNLTSSGEKLLLYHTEETIKINQKCSYIPKCGKNFEESMSLVNVVMENFRKYQHFSCYSDPEGNQKSVILTKLYSSNVLFHSLFWPTCMMAGGVAIVAMVKLTQYLSLLCERIQRINR
In data set [3], B3 gave a stoichiometry N (auxiliary subunits per Slo1 tetramer) of 4. Moreover, in data set [4], the percent of total Slo1 in complex is above 90%.

B4: LRRC55 (γ3)-mCherry-FLAG (natural protein)
chain: GTSCPVLCTCRNQVVDCSSQRLFSVPPDLPMDTRNLSLAHNRITAVPPGYLTCYMELQVLDLHNNSLMELPRGLFLHAKRLAHLDLSYNNFSHVPADMFQEAHGLVHIDLSHNPWLRRVHPQAFQGLMQLRDLDLSYGGLAFLSLEALEGLPGLVTLQIGGNPWVCGCTMEPLLKWLRNRIQRCTADSQLAECRGPPEVEGAPLFSLTEESFKACHLTLTLDDYLFIAFVGFVVSIASVATNFLLGITANCCHRWSKASEEEEI
The molecule B4 yielded a percent of total Slo1 in complex in data set [4] below 10%.

B5: LRRD of γ1 (residues 1-261)-mCherry-FLAG (domain or fragment, human, UniProt Q2I0M4 27-261, looked up)
chain: QVSATASPSGSLGAPDCPEVCTCVPGGLASCSALSLPAVPPGLSLRLRALLLDHNRVRALPPGAFAGAGALQRLDLRENGLHSVHVRAFWGLGALQLLDLSANQLEALAPGTFAPLRALRNLSLAGNRLARLEPAALGALPLLRSLSLQDNELAALAPGLLGRLPALDALHLRGNPWGCGCALRPLCAWLRRHPLPASEAETVLCVWPGRLTLSPLTAFSDAAFSHCAQPLALRD
As for B5, the binding result in “SEC” was “binds”.

B6: human LRRC26 (γ1)-mCherry-FLAG (natural protein, UniProt Q2I0M4 27-334, looked up)
chain: QVSATASPSGSLGAPDCPEVCTCVPGGLASCSALSLPAVPPGLSLRLRALLLDHNRVRALPPGAFAGAGALQRLDLRENGLHSVHVRAFWGLGALQLLDLSANQLEALAPGTFAPLRALRNLSLAGNRLARLEPAALGALPLLRSLSLQDNELAALAPGLLGRLPALDALHLRGNPWGCGCALRPLCAWLRRHPLPASEAETVLCVWPGRLTLSPLTAFSDAAFSHCAQPLALRDLAVVYTLGPASFLVSLASCLALGSGLTACRARRRRLRTAALRPPRPPDPNPDPDPHGCASPADPGSPAAAAQA
For the molecule B6, the stoichiometry N (auxiliary subunits per Slo1 tetramer) in data set [3] is 4. The molecule further registered a stoichiometry N (γ1 subunits per Slo1 tetramer) in data set [5] of 3.5. Further, in “SEC”, the binding result is listed as “binds”. In addition, the percent of total Slo1 in complex in data set [4] stood at 50%.

B7: γ1 P270F-mCherry-FLAG (natural protein)
chain: B6 chain with P244F
For the molecule B7, in data set [3], the stoichiometry N (γ subunits per Slo1 tetramer) turned out to be 2.4.

B8: human LRRC26 (γ1) subunit, tags released (natural protein, UniProt Q2I0M4 27-334, looked up)
chain: B6 chain
modifications: density at N147 likely corresponding to glycosylation
With B8, the binding result in the data set “cryo-EM structure” is recorded as “binds”. Further, in data set [6], the stoichiometry N (γ1 subunits per Slo1 tetramer) worked out at 4.
